Two molecules from article doi:10.1101/2025.01.22.634223 (bioRxiv, 2025) can be followed below.

The chains are these.
B1: 6HIS::MYC::RAB1A::6HIS (natural protein)
chain: not shown
B2: GST::hGDI1 (natural protein)
chain: MDEEYDVIVLGTGLTECILSGIMSVNGKKVLHMDRNPYYGGESSSITPLEELYKRFQLLEGPPESMGRGRDWNVDLIPKFLMANGQLVKMLLYTEVTRYLDFKVVEGSFVYKGGKIYKVPSTETEALASNLMGMFEKRRFRKFLVFVANFDENDPKTFEGVDPQTTSMRDVYRKFDLGQDVIDFTGHALALYRTDDYLDQPCLETVNRIKLYSESLARYGKSPYLYPLYGLGELPQGFARLSAIYGGTYMLNKPVDDIIMENGKVVGVKSEGEVARCKQLICDPSYIPDRVRKAGQVIRIICILSHPIKNTNDANSCQIIIPQNQVNRKSDIYVCMISYAHNVAAQGKYIAIASTTVETTDPEKEVEPALELLEPIDQKFVAISDLYEPIDDGCESQVFCSCSYDATTHFETTCNDIKDIYKRMAGTAFDFENMKRKQNDVFGEAEQ

In test [1] the target is B2. Kind of test: pull-down.
In test [2] the target is 6HIS::MYC::PIAS1::6HIS (human, UniProt O75925 1-651). In words: pull-down.
Sequence of 6HIS::MYC::PIAS1::6HIS (O75925 whole entry): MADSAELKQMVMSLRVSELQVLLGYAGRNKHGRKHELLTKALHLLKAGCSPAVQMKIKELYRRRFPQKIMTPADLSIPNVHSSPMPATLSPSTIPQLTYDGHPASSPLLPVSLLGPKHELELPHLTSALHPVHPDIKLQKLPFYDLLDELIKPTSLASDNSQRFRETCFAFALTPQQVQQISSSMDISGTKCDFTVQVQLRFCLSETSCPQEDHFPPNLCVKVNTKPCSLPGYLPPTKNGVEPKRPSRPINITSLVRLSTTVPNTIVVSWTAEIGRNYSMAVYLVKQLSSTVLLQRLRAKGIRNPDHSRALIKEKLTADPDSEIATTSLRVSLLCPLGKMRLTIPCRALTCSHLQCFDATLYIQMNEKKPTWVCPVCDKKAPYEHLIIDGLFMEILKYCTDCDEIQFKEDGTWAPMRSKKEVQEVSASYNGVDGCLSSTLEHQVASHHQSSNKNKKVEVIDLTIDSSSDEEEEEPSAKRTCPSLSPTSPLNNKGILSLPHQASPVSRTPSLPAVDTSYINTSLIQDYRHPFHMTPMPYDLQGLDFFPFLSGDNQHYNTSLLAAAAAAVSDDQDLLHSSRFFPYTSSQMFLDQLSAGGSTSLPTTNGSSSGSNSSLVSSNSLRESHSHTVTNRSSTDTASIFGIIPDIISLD

In the case of B1, the binding result in test [1] is recorded as “binds”.
Turning to B2, the binding result in test [2] is recorded as “binds”.
